# Experimental data: patent publication US20230077100A1 (published 2023)
# T1: HPV16 E6 peptide on HLA-A*02:01 (human)
# T1 peptide: TIHDIILECV
# B1: E202 TCR (TCR, V domains shown)
# Valpha: AQTVTQSQPEMSVQEAETVTLSCTYDTSESDYYLFWYKQPPSRQMILVIRQEAYKQQNATENRFSVNFQKAAKSFSLKISDSQLGDAAMYFCAYRDSRGSTLGRLYFGRGTQLTVWP
# Vbeta: DVKVTQSSRYLVKRTGEKVFLECVQDMDHENMFWYRQDPGLGLRLIYFSYDVKMKEKGDIPEGYSVSREKKERFSLILESASTNQTSMYLCASSLWGRKNTEAFFGQGTRLTVV
# B2: E203 TCR (TCR, V domains shown)
# Valpha: LAKTTQPISMDSYEGQEVNITCSHNNIATNDYITWYQQFPSQGPRFIIQGYKTKVTNEVASLFIPADRKSSTLSLPRVSLSDTAVYYCLALSMDSSYKLIFGSGTRLLVRP
# Vbeta: DAGVIQSPRHEVTEMGQEVTLRCKPISGHDYLFWYRQTMMRGLELLIYFNNNVPIDDSGMPEDRFSAKMPNASFSTLKIQPSEPRDSAVYFCASSLAQRSAPEAFFGQGTRLTVV
# B3: E205 TCR (TCR, V domains shown)
# Valpha: TQLLEQSPQFLSIQEGENLTVYCNSSSVFSSLQWYRQEPGEGPVLLVTVVTGGEVKKLKRLTFQFGDARKDSSLHITAAQPGDTGLYLCAGVSARLMFGDGTQLVVKP
# Vbeta: SAVISQKPSRDICQRGTSLTIQCQVDSQVTMMFWYRQQPGQSLTLIATANQGSEATYESGFVIDKFPISRPNLTFSTLTVSNMSPEDSSIYLCSAVGGPKVPGAEAFFGQGTRLTVV
# Legend:
# [1] = target: T1, HPV16 E6 peptide on HLA-A*02:01; experiment: peptide titration on T2 cells, E:T 1:1, overnight, intracellular IFN-γ; full-length, on cells
# [2] = target: T1, HPV16 E6 peptide on HLA-A*02:01; experiment: peptide titration on APCs, E:T 1:1, overnight, intracellular IFN-γ in CD4+ TCR-T cells; full-length, on cells
# [3] = target: T1, HPV16 E6 peptide on HLA-A*02:01; experiment: peptide titration on APCs, E:T 1:1, overnight, intracellular IFN-γ in CD8+ TCR-T cells; full-length, on cells
binder,measurement,setting,value
B1,EC50 of peptide,[1],0.045 µg/mL
B2,EC50 of peptide,[2],0.0176 µg/mL
same,EC50 of peptide,[3],0.00104 µg/mL
B3,EC50 of peptide,[2],0.0104 µg/mL
same,EC50 of peptide,[3],0.000917 µg/mL
